Measurements reported in doi:10.1101/2024.04.29.591687 (bioRxiv, 2024).

Target: T1, tGFP-tagged mCLDN5 (mouse, UniProt O54942 1-218)
T1 sequence: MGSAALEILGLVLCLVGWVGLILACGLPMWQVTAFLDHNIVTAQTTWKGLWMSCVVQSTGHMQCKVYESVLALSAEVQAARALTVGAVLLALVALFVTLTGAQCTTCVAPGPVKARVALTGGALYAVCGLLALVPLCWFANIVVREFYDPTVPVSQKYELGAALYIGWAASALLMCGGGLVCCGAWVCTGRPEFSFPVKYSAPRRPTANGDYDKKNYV
Test: MST

Q: For ESVLALNAEVQAAR [f1-C5C2], which Kd is on record?
A: Its Kd is 68.3 µM.
